This note sets out measurements from US20220073616A1 (Merck KGaA, published 2022).

Test [1] addresses T1, T Cell Immunoglobulin and Mucin Domain-3 (TIM-3) on human blood cells (human, UniProt Q8TDQ0 22-301).
T1 construct: whole, on cells; also called TIM-3 on CD14+ monocytes; HAVCR2
Description: Flow cytometry on human whole blood, target occupancy on CD14+ monocytes, donor KP46315. Unoccupied TIM-3 was detected with the competing anti-TIM-3 (2E2)-APC. (A flow cytometer gives signals particle by particle.)

Test [2] addresses T2, wild-type human TIM-3 (hu TIM-3) (human, UniProt Q8TDQ0 22-200, limits assumed).
T2 construct: Soluble protein used for SPR; also called wild-type TIM-3
Description: SPR (Biacore 4000), antibody captured via anti-human Fc. (In general: In SPR one partner is held on a chip, and binding of the other changes the refractive index at the surface.)

Test [3] concerns the target T2, wild-type human TIM-3 (hu TIM-3). The test is described as above. This is another data set of the same source.
For test [4], the target named is T1, T Cell Immunoglobulin and Mucin …. Briefly: flow cytometry, target occupancy on CD14+ monocytes in human whole blood; unoccupied TIM-3 detected with the competing anti-TIM-3(2E2)-APC; average of 10 donors.
Test [5] has the same target. Description: Flow cytometry on human whole blood, target occupancy on CD14+ monocytes, donor KP46231. Unoccupied TIM-3 was detected with the competing anti-TIM-3 (2E2)-APC.
A further test has as its target T3, rhTIM-3-Fc AF647 (human, UniProt Q8TDQ0 22-200, AF647 label).
T3 construct: also called rhTIM-3 AF647; not shown: Fc part
Description: flow cytometry; M6903 pre-incubated with rhTIM-3-Fc AF647, inhibition of its binding to PtdSer on apoptotic Jurkat cells.

The target in test [6] is T1, T Cell Immunoglobulin and Mucin …. Description: Flow cytometry on human whole blood, target occupancy on CD14+ monocytes, donor KP46318 (assigned by elimination of the other line styles). Unoccupied TIM-3 was detected with the competing anti-TIM-3 (2E2)-APC.

Read-outs that look alike come from different tables or passages of the source.

B1: M6903 (anti-TIM3-3903E11(VL1.3,VH1.2)-IgG2h(FN-AQ,322A)-delK) (antibody, V domains shown)
VH: not shown
VL: QSALTQPRSVSGSPGQSVTISCTGTSSDVGGYNYVSWYQQHPGKAPKLMIYDVSKRPSGVPDRFSGSKSGNTASLTISGLQAEDEADYYCSSYADSVVFGGGTKVTVLG
notes: Anti-TIM-3 (A16-019-1), used in the target occupancy assay, is said to be identical to M6903 but produced in Expi293F instead of CHOK1SV cells; it is kept under this molecule; also called 3903E11 (VL1.3,VH1.2)-IgG2h(FN-AQ,322A)-delK antibody; anti-TIM-3 (A16-019-1)
For B1, the concentration giving a half-maximal response (EC50 (read off the curve)) in test [1], in test [5] and in test [6] was roughly 0.07 µg/mL in each case. In addition, the figures for the Kd in test [2] and in test [3] were 6.2 nM and 5.7 nM, respectively. The EC50 (in general, the midpoint of the concentration-response curve) in test [4] is 0.111 µg/mL. For the same molecule, the half-maximal inhibitory concentration (IC50) (in general, the point on the concentration scale where inhibition reaches its midpoint) with rhTIM-3-Fc AF647 stood at 4.44 nM.
